Literature values as cited in publication PMC6800417.

Target: EGFR (Homo sapiens) (UniProt P00533)

Question: For 111In-DTPA-hEGF (from UniProt P01133), which Kd is on record?
Answer: The Kd was 1.3 nM.
